Data published in patent US20260008848A1, “ANTI-NECTIN-4 ANTIBODY, AND ANTIBODY-DRUG CONJUGATE AND USE THEREOF” (Bio-Thera Solutions, Ltd., priority 2022, published 2026).
Blank lines part the entries; values can stand above or below the molecule they belong to.

Assays:
T-47D cells [1] = experiment: Binding of antibody to T-47D cells by FACS; parameters: species or system human; conditions: 3-fold dilutions from 100 nM, 4° C.
Protocol: (§1) The binding activity of antibody ASG-AM to T-47D cells (human ductal breast carcinoma cells, sourced from the Cell Bank of the Chinese Academy of Sciences, Cat. No.: TCHu 87) was detected by FACS and compared with that of the reference antibody ASG-22. The EC50 of the binding of candidate antibodies to the cells was analyzed using the four-parameter method. The method is briefly described as follows: T-47D cells were digested with pancreatin. Each candidate antibody was serially 3-fold diluted from 100 nM and co-incubated with T-47D cells at 4° C. for 0.5-1 h. Subsequently, a PE-labeled anti-human Fc secondary antibody (Invitrogen, 12-4998-82) was added. The signal intensity of the red fluorescence was detected by a flow cytometer. Graphpad Prism was used for plotting and calculating the EC50.

T-47D cells [2] = experiment: Endocytosis assay by FACS (antibody remaining on cell surface); type: cell-based, human; conditions: 10 μg/mL antibody
Protocol: The relative quantity of antibodies remaining on the cell surface after incubation at 37° C. for a certain period was detected by FACS to reflect the efficiency of endocytosis. The method is briefly described as follows: T-47D cells (human ductal breast carcinoma cells, sourced from the Cell Bank of the Chinese Academy of Sciences, Cat. No.: TCHu 87) were used. Each test antibody was adjusted to a concentration of 10 μg/mL and co-incubated with cells (at a density of 0.5×10^6 cells/mL) on ice for 1 h for binding. The cells were washed thrice with pre-cooled PBS and then incubated at 37° C. for 0 h, 2 h, and 4 h. The endocytosis reaction was terminated with 0.2% N3Na, and the cells were washed thrice with PBS. Subsequently, a PE-labeled anti-human Fc secondary antibody (Invitrogen 12-4998-82) was added, and the cells were incubated at 4° C. for 30 min. The red fluorescence signal was detected by a flow cytometer.

[3] = biological target: T1, human Nectin-4 extracellular antigen (Nectin-4-His) (Homo sapiens, UniProt Q96NY8); experiment: Affinity measurement by BLI (Octet QKe, Protein A biosensor); type: binding
T1 construct: albumin signal peptide (replaces the native Nectin-4 signal peptide) (N); made in house
T1 sequence (Q96NY8 with tags, fused parts or gaps): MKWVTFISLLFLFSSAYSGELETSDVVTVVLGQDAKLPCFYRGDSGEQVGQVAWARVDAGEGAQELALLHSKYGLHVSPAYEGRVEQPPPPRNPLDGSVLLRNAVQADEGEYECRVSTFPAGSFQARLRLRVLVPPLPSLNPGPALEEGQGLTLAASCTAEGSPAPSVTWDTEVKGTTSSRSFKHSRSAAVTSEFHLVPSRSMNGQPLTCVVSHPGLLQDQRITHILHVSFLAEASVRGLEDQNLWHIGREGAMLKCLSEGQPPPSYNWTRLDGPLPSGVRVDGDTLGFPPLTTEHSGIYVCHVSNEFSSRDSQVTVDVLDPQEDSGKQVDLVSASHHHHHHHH
Protocol: (§2) The affinity of candidate antibodies (ASG-22 and ASG-AM) for the human Nectin-4 extracellular antigen was detected using the bio-layer interferometry (BLI) technology on the Octet platform (Fortebio, Octet QKe).
(§3) Antibodies were loaded onto a Protein A biosensor (Fortebio, 18-5010) at a concentration of 20 μg/mL with a loading time of 60 s. Nectin-4-His antigen concentrations were set at 200 nM, 100 nM, 50 nM, 25 nM, and 0 nM. The antigen association time was 180 s, and the dissociation time was 200 s. Data were then processed and analyzed using Acquisition 8.2 to give affinity constants (see Table 4).

[4] = biological target: T1, human Nectin-4 extracellular antigen (Nectin-4-His); experiment: Affinity measurement by SPR (BIAcore T200, Protein A chip capture); type: binding; conditions: 1:1 model fit
Protocol: (§4) The candidate antibodies (ASG-22 and ASG-AM) were analyzed for their affinity for the human Nectin-4 extracellular antigen using surface plasmon resonance (SPR) technology (BIAcore: GE Healthcare, T200).
(§5) The capture was conducted on a Protein A chip (Cat #29127556, GE Healthcare): Antibody dilutions ([…]) were directed through the experimental flow channels (Fc2 and Fc4) at a flow rate of 10 μL/min for 10 s. Then antigen Nectin-4-His (prepared from Example 1) dilutions at different concentrations (0 nM, 1.23 nM, 3.7 nM, 11.1 nM, 33.3 nM, and 100 nM) were sequentially introduced with the flow rate adjusted to 30 μL/min through the surfaces of the experimental flow channels (Fc2 and Fc4) and reference flow channels (Fc1 and Fc3) with 120 s of association and 180 s of dissociation. Finally, the chip regenerated in Glycine 1.5. Fitting and analysis were performed using BiaEvaluation 3.2, with a 1:1 model for the fitting.

[5] = biological target: T2, Nectin-4 on T-47D cells (human ductal breast carcinoma cells) (human, UniProt Q96NY8 32-510); experiment: FACS on T-47D cells, antibody 3-fold diluted from 100 nM, PE-labeled anti-human Fc secondary antibody, four-parameter fit
T2 construct: whole, on cells; that is inferred from the antibodies' specificity
T2 sequence (looked up): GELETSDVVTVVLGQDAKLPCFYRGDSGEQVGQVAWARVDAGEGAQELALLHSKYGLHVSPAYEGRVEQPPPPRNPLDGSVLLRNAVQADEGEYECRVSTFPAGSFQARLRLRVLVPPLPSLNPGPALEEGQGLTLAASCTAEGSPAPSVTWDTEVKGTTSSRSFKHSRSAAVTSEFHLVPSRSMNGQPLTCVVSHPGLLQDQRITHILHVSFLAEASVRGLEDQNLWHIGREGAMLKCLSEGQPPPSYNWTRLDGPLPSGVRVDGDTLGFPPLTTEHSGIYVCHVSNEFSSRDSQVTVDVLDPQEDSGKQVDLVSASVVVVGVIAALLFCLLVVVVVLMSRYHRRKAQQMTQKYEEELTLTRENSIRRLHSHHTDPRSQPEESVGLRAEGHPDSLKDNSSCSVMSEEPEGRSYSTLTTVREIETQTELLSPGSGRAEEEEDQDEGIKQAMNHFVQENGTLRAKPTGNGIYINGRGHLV
Protocol: as §1, with “EC₅₀” for “EC50”, “EC₅₀.” for “EC50.”

[6] = biological target: T3, human Nectin-4 extracellular antigen Nectin-4-His (human, UniProt Q96NY8 32-349); experiment: BLI (Octet QKe), antibody loaded on Protein A biosensor, Nectin-4-His in solution
T3 construct: the secreted protein in the assay lacks the signal peptide
T3 sequence: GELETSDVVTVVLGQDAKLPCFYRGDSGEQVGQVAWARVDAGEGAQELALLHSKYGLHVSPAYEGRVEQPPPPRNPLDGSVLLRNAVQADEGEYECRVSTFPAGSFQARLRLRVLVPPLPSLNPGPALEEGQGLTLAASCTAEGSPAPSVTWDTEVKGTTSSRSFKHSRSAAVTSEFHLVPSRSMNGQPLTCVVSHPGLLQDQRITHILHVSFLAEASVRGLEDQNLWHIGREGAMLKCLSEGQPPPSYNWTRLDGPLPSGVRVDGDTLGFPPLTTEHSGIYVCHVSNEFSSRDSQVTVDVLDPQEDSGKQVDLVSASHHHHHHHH
Protocol: as §2, §3

[7] = biological target: T3, human Nectin-4 extracellular antigen …; experiment: SPR (BIAcore T200), antibody captured on Protein A chip, Nectin-4-His as analyte, 1:1 fit
Protocol: as §4, §5

Rmax [3]: 0.5303 | kdis [3]: 0.00162 s⁻¹ | kon [3]: 113000 M⁻¹ s⁻¹ | Ka [4]: 606000 M⁻¹ s⁻¹ | Rmax [4]: 164.2 RU | Kd ([4]; dissociation rate): 0.00523 s⁻¹
Molecule: ASG-22: reference anti-Nectin-4 antibody; heavy chain SEQ ID NO: 12, light chain SEQ ID NO: 17 (Table 2) [reference compound]
binding curves to T-47D cells (T-47D cells [1]): substantially consistent | red fluorescence signal at 0 h (T-47D cells [2]; 37° C. for 0 h): 24098.3 | Endocytosis at 2 h (T-47D cells [2]; 37° C. for 2 h): 53.46% | red fluorescence signal at 2 h (T-47D cells [2]; 37° C. for 2 h): 11216.0 | Endocytosis at 4 h (T-47D cells [2]; 37° C. for 4 h): 74.97% | red fluorescence signal at 4 h (T-47D cells [2]; 37° C. for 4 h): 6033

EC50 [5]: 0.752 nM | Kd [6]: 14.3 nM | koff [6]: 0.00162 s⁻¹ | kon [6]: 113000 M⁻¹ s⁻¹ | Kd [7]: 8.64 nM | koff [7]: 0.00523 s⁻¹ | kon [7]: 606000 M⁻¹ s⁻¹
B1: reference antibody ASG-22 (antibody, human IgG1, kappa, V domains shown)
VH: EVQLVESGGGLVQPGGSLRLSCAASGFTFSSYNMNWVRQAPGKGLEWVSYISSSSSTIYYADSVKGRFTISRDNAKNSLSLQMNSLRDEDTAVYYCARAYYYGMDVWGQGTLVTVSS
VL: DIQMTQSPSSVSASVGDRVTITCRASQGISGWLAWYQQKPGKAPKFLIYAASTLQSGVPSRFSGSGSGTDFTLTISSLQPEDFATYYCQQANSFPPTFGGGTKVEIKR
notes: Expressed in HEK293F cells

EC50 [5]: 0.726 nM | Kd [6]: 0.266 nM | koff [6]: 2.38e-05 s⁻¹ | kon [6]: 89600 M⁻¹ s⁻¹ | Kd [7]: 1.79 nM | koff [7]: 0.000535 s⁻¹ | kon [7]: 298000 M⁻¹ s⁻¹
B2: anti-Nectin-4 antibody ASG-AM (antibody, human IgG1, kappa, V domains shown)
VH: B1 VH
VL: DIQMTQSPSSVSASVGDRVTITCRASQGISGWLAWYQQKPGKAPKFLIYAASTLQSGVPSRFSGSGSGTDFTLTISSLQPEDFATYYCQQAGPGWVFGQGTKVEIKR
notes: Expressed in HEK293F cells
